The results in this text go back to PMC6118392, “VapC proteins from Mycobacterium tuberculosis share ribonuclease sequence specificity but differ in regulation and toxicity” (PLoS ONE, 2018).

What all share (assay): EMSA
On the technique in general: In EMSA bound probe runs differently from free probe, usually more slowly.

Series [1] has as its target T1, VapB29;VapC29 (UniProt P9WJ37+P9WF79).
T1 sequence 1: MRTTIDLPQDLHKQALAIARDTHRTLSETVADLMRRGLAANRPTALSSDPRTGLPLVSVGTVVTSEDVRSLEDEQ
T1 sequence 2: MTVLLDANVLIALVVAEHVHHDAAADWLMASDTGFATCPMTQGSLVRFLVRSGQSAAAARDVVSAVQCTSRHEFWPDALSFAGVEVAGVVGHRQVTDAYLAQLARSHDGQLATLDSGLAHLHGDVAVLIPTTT

A further series deals with T2, VapB1;VapC1 (UniProt P0CW29+P9WFC1).
T2 sequence 1: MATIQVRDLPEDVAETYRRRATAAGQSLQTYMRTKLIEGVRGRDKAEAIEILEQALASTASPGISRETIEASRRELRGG
T2 sequence 2: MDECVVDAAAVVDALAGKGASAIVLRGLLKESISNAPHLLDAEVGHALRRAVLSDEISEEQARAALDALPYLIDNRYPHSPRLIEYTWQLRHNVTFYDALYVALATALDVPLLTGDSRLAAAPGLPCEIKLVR

The target of series [2] is T3, VapB29;VapC29 (Mycobacterium tuberculosis …, UniProt P9WJ37;P9WF79 1-75;1-133, |).
T3 sequence 1: T1 sequence 1
T3 sequence 2: T1 sequence 2
The following applies: protein: recombinant;recombinant; tags: ;C-terminal His; label: 3' DIG-ddUTP; blunt.

As for “CATGGGAATACGATACCAATGGCTTCCCACTCAGGTGCGGAAGTCGACTCACCGCCGTTACCACGACCCCGACGACCACACCGTCAGCTGCGGCGCGGCGTGGCGACTATTGGTCGCTAGTGTCGTGCTCCCGATTCGGGTCCTTTGTATCTGATGACGT (double strand) [vapBC27 promoter 160 bp]”, the binding entry in the series with VapB29;VapC29 [1] is given as “no binding”.

For the molecule “AGCGGAGTTCACCGGCTAAGAATGCCGGCTTATCCACCGGGCGTTTCGGCGGCATCGATGGCCTTCTCTAACCGGTCGAGCACCGCGCGCAGATCGGCCAG (double strand) [vapBC1 promoter 101 bp]”, the binding result in the series with VapB1;VapC1 was “no binding”. For the molecule “GTGGATAAGCCGGCATTCTTAGCCGGTGAACTCCGCTATGGCTACCATTCAAGTTCGGGATTTGCCCGAAGATGTCGCCGAAACCTATCGACGGCGCGCCACCGCAGCGGGGCAGTCGCTGCAGACGTATATGCGCACCAAGCTCATCGA (double strand) [vapBC1 promoter 150 bp]”, the binding result with VapB1;VapC1 and in the series with VapB29;VapC29 [1] was “no binding” throughout.

B1: Oligo 5 (50 bp vapBC29 promoter, control) (dsDNA)
DNA 1: GGTGAGCGTCGGCGCGCGCATCACGATGCAGCGATGTTAGGATGAGGCGG
DNA 2: CCGCCTCATCCTAACATCGCTGCATCGTGATGCGCGCGCCGACGCTCACC
With B1, in the series with VapB29;VapC29 [2], the binding result is “binds”.
